Test results: publication doi:10.1101/2025.03.03.641244 (bioRxiv, 2025)

Legend:
Test in all cases: MST
[1] = target: Sortilin extracellular domain (ECD) (M1-S756) C-terminally fused to 6His (UniProt Q99523)
[2] = target: Enhanced GFP with C-terminal (GGGGS)3GG linker and RQLL
[3] = target: T1, Sortilin extracellular domain (ECD) (M1-S756) C-terminally fused to 6His (UniProt Q99523 78-756)
T1 sequence: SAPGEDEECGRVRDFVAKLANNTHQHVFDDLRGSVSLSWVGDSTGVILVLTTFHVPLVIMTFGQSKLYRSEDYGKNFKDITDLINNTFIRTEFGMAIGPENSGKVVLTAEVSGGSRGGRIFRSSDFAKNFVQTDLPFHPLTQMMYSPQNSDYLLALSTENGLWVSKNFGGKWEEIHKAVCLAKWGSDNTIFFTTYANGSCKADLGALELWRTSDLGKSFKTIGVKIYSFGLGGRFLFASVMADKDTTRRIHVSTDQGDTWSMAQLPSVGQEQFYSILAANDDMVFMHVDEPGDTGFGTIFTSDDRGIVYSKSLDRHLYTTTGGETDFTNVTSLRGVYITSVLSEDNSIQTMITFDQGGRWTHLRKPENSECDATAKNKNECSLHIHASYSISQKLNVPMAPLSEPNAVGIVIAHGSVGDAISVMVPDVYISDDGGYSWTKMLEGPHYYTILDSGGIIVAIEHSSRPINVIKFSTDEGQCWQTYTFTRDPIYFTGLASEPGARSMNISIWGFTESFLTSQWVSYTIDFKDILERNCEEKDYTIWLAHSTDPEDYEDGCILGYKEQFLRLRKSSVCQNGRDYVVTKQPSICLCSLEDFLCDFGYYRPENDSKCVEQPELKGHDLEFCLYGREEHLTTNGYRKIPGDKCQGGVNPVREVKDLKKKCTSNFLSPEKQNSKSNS

TNFa (V76-L233) without RQLL (natural protein)
Kd [1]: > 200000 nM

TNFa (V76-L233) with C-terminal (GGGGS)3GG linker and RQLL
Kd [1]: 86.5 nM

Sortilin extracellular domain (ECD) (M1-S756) C-terminally fused to 6His (from UniProt Q99523 78-756) (domain or fragment)
Kd [2]: 74 nM

B1: progranulin N-terminally tagged with the HiBiT peptide (ligand)
chain: TRCPDGQFCPVACCLDPGGASYSCCRPLLDKWPTTLSRHLGGPCQVDAHCSAGHSCIFTVSGTSSCCPFPEAVACGDGHHCCPRGFHCSADGRSCFQRSGNNSVGAIQCPDSQFECPDFSTCCVMVDGSWGCCPMPQASCCEDRVHCCPHGAFCDLVHTRCITPTGTHPLAKKLPAQRTNRAVALSSSVMCPDARSRCPDGSTCCELPSGKYGCCPMPNATCCSDHLHCCPQDTVCDLIQSKCLSKENATTDLLTKLPAHTVGDVKCDMEVSCPDGYTCCRLQSGAWGCCPFTQAVCCEDHIHCCPAGFTCDTQKGTCEQGPHQVPWMEKAPAHLSLPDPQALKRDVPCDNVSSCPSSDTCCQLTSGEWGCCPIPEAVCCSDHQHCCPQGYTCVAEGQCQRGSEIVAGLEKMPARRASLSHPRDIGCDQHTSCPVGQTCCPSLGGSWACCQLPHAVCCEDRQHCCPAGYTCNVKARSCEKEVVSAQPATFLARSPHVGVKDVECGEGHFCHDNQTCCRDNRQGWACCPYRQGVCCADRRHCCPAGFRCAARGTKCLRREAPRWDAPLRDPALRQLL
Kd [3]: 3.5 ± 1.6 nM
